# ± gives the uncertainty stated by the source.
# B1: Peroxisome proliferator-activated receptor delta, residues 71 to 145; numbered along this chain, Q03181 (parent)
# chain: NMECRVCGDKASGFHYGVHACEGCKGFFRRTIRMKLEYEKCERSCKIQKKNRNKCQYCRFQKCLALGMSHNAIRF
# Variants of: B1
# Assay: abundance fitness (aPCA) (normalised: wild type 0, dead -1); higher = more abundant; growth selection in yeast, the domain comes from the species named
# Conditions: Homo sapiens
row,Variant,abundance fitness
1,NMECRVCGDKASGFHYGVHACEGCKGFFRRTIRMKLEYEKCERSCKIQKKNRNKCQYCRFQKCLGLGMSHNAIRF,-0.185 ± 0.035
2,NMECRVCGDKASGFHYGVHACEGCKGFFRRTIRMKLEYEKCERSCKIQKKNRNKCQYCRFQKCLLLGMSHNAIRF,-0.098 ± 0.036
3,NMECRVCGDKASGFHYGVHACEGCKGFFRRTIRMKLEYEKCERSCKIQKKNRNKCQYCRFQKCLSLGMSHNAIRF,-0.011 ± 0.037
4,NMECRVCGDKASGFHYGVHACEGCKGFFRRTIRMKLEYEKCERSCKIQKKNRNKCQYCRFQKCLWLGMSHNAIRF,-0.231 ± 0.049
5,NMECRVCGDKASGFHYGVHACEGCKGFFRRTIRMKLEYEKCERSCKIQKKNRNKCQYCRFQKCLELGMSHNAIRF,-0.003 ± 0.042
6,NMECRVCGDKASGFHYGVHACEGCKGFFRRTIRMKLEYEKCERSCKIQKKNRNKCQYCRFQKCLYLGMSHNAIRF,-0.301 ± 0.11
7,NMECRVCGDKASGFHYGVHACEGCKGFFRRTIRMKLEYEKCERSCKIQKKNRNKCQYCRFQKCLKLGMSHNAIRF,-0.073 ± 0.048
8,NMECRVCGDKASGFHYGVHACEGCKGFFRRTIRMKLEYEKCERSCKIQKKNRNKCQYCRFQKCLVLGMSHNAIRF,-0.075 ± 0.043
9,NMECRVCGDKASGFHYGVHACEGCKGFFRRTIRMKLEYEKCERSCKIQKKNRNKCQYCRFQKCLNLGMSHNAIRF,-0.026 ± 0.064
10,NMECRVCGDKASGFHYGVHACEGCKGFFRRTIRMKLEYEKCERSCKIQKKNRNKCQYCRFQKCLPLGMSHNAIRF,-0.819 ± 0.14
11,NMECRVCGDKASGFHYGVHACEGCKGFFRRTIRMKLEYEKCERSCKIQKKNRNKCQYCRFQKCLQLGMSHNAIRF,-0.001 ± 0.052
12,NMECRVCGDKASGFHYGVHACEGCKGFFRRTIRMKLEYEKCERSCKIQKKNRNKCQYCRFQKCLDLGMSHNAIRF,0.092 ± 0.056
13,NMECRVCGDKASGFHYGVHACEGCKGFFRRTIRMKLEYEKCERSCKIQKKNRNKCQYCRFQKCLRLGMSHNAIRF,-0.086 ± 0.032
14,NMECRVCGDKASGFHYGVHACEGCKGFFRRTIRMKLEYEKCERSCKIQKKNRNKCQYCRFQKCLCLGMSHNAIRF,-0.295 ± 0.083
15,NMECRVCGDKASGFHYGVHACEGCKGFFRRTIRMKLEYEKCERSCKIQKKNRNKCQYCRFQKCLILGMSHNAIRF,-0.162 ± 0.11
16,NMECRVCGDKASGFHYGVHACEGCKGFFRRTIRMKLEYEKCERSCKIQKKNRNKCQYCRFQKCLTLGMSHNAIRF,-0.073 ± 0.051
17,NMECRVCGDKASGFHYGVHACEGCKGFFRRTIRMKLEYEKCERSCKIQKKNRNKCQYCRFQKCLHLGMSHNAIRF,-0.288 ± 0.089
18,NMECRVCGDKASGFHYGVHACEGCKGFFRRTIRMKLEYEKCERSCKIQKKNRNKCQYCRFQKCLFLGMSHNAIRF,-0.19 ± 0.073
19,NMECRVCGDKASGFHYGVHACEGCKGFFRRTIRMKLEYEKCERSCKIQKKNRNKCQYCRFQKYLALGMSHNAIRF,-0.232 ± 0.078
20,NMECRVCGDKASGFHYGVHACEGCKGFFRRTIRMKLEYEKCERSCKIQKKNRNKCQYCRFQKWLALGMSHNAIRF,-0.88 ± 0.13
21,NMECRVCGDKASGFHYGVHACEGCKGFFRRTIRMKLEYEKCERSCKIQKKNRNKCQYCRFQKSLALGMSHNAIRF,-0.905 ± 0.11
22,NMECRVCGDKASGFHYGVHACEGCKGFFRRTIRMKLEYEKCERSCKIQKKNRNKCQYCRFQKRLALGMSHNAIRF,-0.508 ± 0.054
23,NMECRVCGDKASGFHYGVHACEGCKGFFRRTIRMKLEYEKCERSCKIQKKNRNKCQYCRFQKVLALGMSHNAIRF,-0.912 ± 0.12
24,NMECRVCGDKASGFHYGVHACEGCKGFFRRTIRMKLEYEKCERSCKIQKKNRNKCQYCRFQKTLALGMSHNAIRF,-0.85 ± 0.13
25,NMECRVCGDKASGFHYGVHACEGCKGFFRRTIRMKLEYEKCERSCKIQKKNRNKCQYCRFQKCLALFMSHNAIRF,-0.459 ± 0.14

row,Variant,abundance fitness
1,NMECRVCGDKASGFHYGVHACEGCKGFFRRTIRMKLEYEKCERSCKIQKKNRNKCQYCRFQKCLALEMSHNAIRF,-0.525 ± 0.091
2,NMECRVCGDKASGFHYGVHACEGCKGFFRRTIRMKLEYEKCERSCKIQKKNRNKCQYCRFQKCLALDMSHNAIRF,-0.441 ± 0.11
3,NMECRVCGDKASGFHYGVHACEGCKGFFRRTIRMKLEYEKCERSCKIQKKNRNKCQYCRFQKCLALNMSHNAIRF,-0.36 ± 0.1
4,NMECRVCGDKASGFHYGVHACEGCKGFFRRTIRMKLEYEKCERSCKIQKKNRNKCQYCRFQKCLALPMSHNAIRF,-0.562 ± 0.13
5,NMECRVCGDKASGFHYGVHACEGCKGFFRRTIRMKLEYEKCERSCKIQKKNRNKCQYCRFQKCLALHMSHNAIRF,-0.714 ± 0.23
6,NMECRVCGDKASGFHYGVHACEGCKGFFRRTIRMKLEYEKCERSCKIQKKNRNKCQYCRFQKCLALQMSHNAIRF,-0.604 ± 0.16
7,NMECRVCGDKASGFHYGVHACEGCKGFFRRTIRMKLEYEKCERSCKIQKKNRNKCQYCRFQKCLALIMSHNAIRF,-0.74 ± 0.22
8,NMECRVCGDKASGFHYGVHACEGCKGFFRRTIRMKLEYEKCERSCKIQKKNRNKCQYCRFQKCLALAMSHNAIRF,-0.411 ± 0.07
9,NMECRVCGDKASGFHYGVHACEGCKGFFRRTIRMKLEYEKCERSCKIQKKNRNKCQYCRFQKCLALCMSHNAIRF,-0.469 ± 0.11
10,NMECRVCGDKASGFHYGVHACEGCKGFFRRTIRMKLEYEKCERSCKIQKKNRNKCQYCRFQKCLALMMSHNAIRF,-0.497 ± 0.097
11,NMECRVCGDKASGFHYGVHACEGCKGFFRRTIRMKLEYEKCERSCKIQKKNRNKCQYCRFQKCLALKMSHNAIRF,-0.407 ± 0.091
12,NMECRVCGDKASGFHYGVHACEGCKGFFRRTIRMKLEYEKCERSCKIQKKNRNKCQYCRFQKCLALLMSHNAIRF,-0.808 ± 0.091
13,NMECRVCGDKASGFHYGVHACEGCKGFFRRTIRMKLEYEKCERSCKIQKKNRNKCQYCRFQKCLAWGMSHNAIRF,-0.629 ± 0.12
14,NMECRVCGDKASGFHYGVHACEGCKGFFRRTIRMKLEYEKCERSCKIQKKNRNKCQYCRFQKCLAFGMSHNAIRF,-0.438 ± 0.11
15,NMECRVCGDKASGFHYGVHACEGCKGFFRRTIRMKLEYEKCERSCKIQKKNRNKCQYCRFQKCLAKGMSHNAIRF,-0.018 ± 0.05
16,NMECRVCGDKASGFHYGVHACEGCKGFFRRTIRMKLEYEKCERSCKIQKKNRNKCQYCRFQKCLAQGMSHNAIRF,0.014 ± 0.056
17,NMECRVCGDKASGFHYGVHACEGCKGFFRRTIRMKLEYEKCERSCKIQKKNRNKCQYCRFQKCLAPGMSHNAIRF,-0.681 ± 0.13
18,NMECRVCGDKASGFHYGVHACEGCKGFFRRTIRMKLEYEKCERSCKIQKKNRNKCQYCRFQKCLAEGMSHNAIRF,0.067 ± 0.046
19,NMECRVCGDKASGFHYGVHACEGCKGFFRRTIRMKLEYEKCERSCKIQKKNRNKCQYCRFQKCLAMGMSHNAIRF,0.109 ± 0.05
20,NMECRVCGDKASGFHYGVHACEGCKGFFRRTIRMKLEYEKCERSCKIQKKNRNKCQYCRFQKCLASGMSHNAIRF,0.03 ± 0.039
21,NMECRVCGDKASGFHYGVHACEGCKGFFRRTIRMKLEYEKCERSCKIQKKNRNKCQYCRFQKCLACGMSHNAIRF,-0.15 ± 0.077
22,NMECRVCGDKASGFHYGVHACEGCKGFFRRTIRMKLEYEKCERSCKIQKKNRNKCQYCRFQKCLATGMSHNAIRF,0.086 ± 0.049
23,NMECRVCGDKASGFHYGVHACEGCKGFFRRTIRMKLEYEKCERSCKIQKKNRNKCQYCRFQKCLAIGMSHNAIRF,0.106 ± 0.059
24,NMECRVCGDKASGFHYGVHACEGCKGFFRRTIRMKLEYEKCERSCKIQKKNRNKCQYCRFQKCLAYGMSHNAIRF,-0.345 ± 0.12
25,NMECRVCGDKASGFHYGVHACEGCKGFFRRTIRMKLEYEKCERSCKIQKKNRNKCQYCRFQKCLAGGMSHNAIRF,-0.419 ± 0.051

row,Variant,abundance fitness
1,NMECRVCGDKASGFHYGVHACEGCKGFFRRTIRMKLEYEKCERSCKIQKKNRNKCQYCRFQKCLAAGMSHNAIRF,-0.077 ± 0.048
2,NMECRVCGDKASGFHYGVHACEGCKGFFRRTIRMKLEYEKCERSCKIQKKNRNKCQYCRFQKCLAHGMSHNAIRF,-0.436 ± 0.13
3,NMECRVCGDKASGFHYGVHACEGCKGFFRRTIRMKLEYEKCERSCKIQKKNRNKCQYCRFQKCLARGMSHNAIRF,-0.315 ± 0.046
4,NMECRVCGDKASGFHYGVHACEGCKGFFRRTIRMKLEYEKCERSCKIQKKNRNKCQYCRFQKCLAVGMSHNAIRF,0.113 ± 0.035
5,NMECRVCGDKASGFHYGVHACEGCKGFFRRTIRMKLEYEKCERSCKIQKKNRNKCQYCRFQKCLADGMSHNAIRF,-0.521 ± 0.12
6,NMECRVCGDKASGFHYGVHACEGCKGFFRRTIRMKLEYEKCERSCKIQKKNRNKCQYCRFQKCLANGMSHNAIRF,-0.014 ± 0.073
7,NMECRVCGDKASGFHYGVHACEGCKGFFRRTIRMKLEYEKCERSCKIQKKNRNKCQYCRFQKCIALGMSHNAIRF,-0.037 ± 0.07
8,NMECRVCGDKASGFHYGVHACEGCKGFFRRTIRMKLEYEKCERSCKIQKKNRNKCQYCRFQKCTALGMSHNAIRF,-0.288 ± 0.065
9,NMECRVCGDKASGFHYGVHACEGCKGFFRRTIRMKLEYEKCERSCKIQKKNRNKCQYCRFQKCDALGMSHNAIRF,-0.83 ± 0.18
10,NMECRVCGDKASGFHYGVHACEGCKGFFRRTIRMKLEYEKCERSCKIQKKNRNKCQYCRFQKCEALGMSHNAIRF,-0.397 ± 0.073
11,NMECRVCGDKASGFHYGVHACEGCKGFFRRTIRMKLEYEKCERSCKIQKKNRNKCQYCRFQKCHALGMSHNAIRF,-0.274 ± 0.1
12,NMECRVCGDKASGFHYGVHACEGCKGFFRRTIRMKLEYEKCERSCKIQKKNRNKCQYCRFQKCGALGMSHNAIRF,-0.805 ± 0.079
13,NMECRVCGDKASGFHYGVHACEGCKGFFRRTIRMKLEYEKCERSCKIQKKNRNKCQYCRFQKCMALGMSHNAIRF,-0.188 ± 0.058
14,NMECRVCGDKASGFHYGVHACEGCKGFFRRTIRMKLEYEKCERSCKIQKKNRNKCQYCRFQKCPALGMSHNAIRF,-0.838 ± 0.12
15,NMECRVCGDKASGFHYGVHACEGCKGFFRRTIRMKLEYEKCERSCKIQKKNRNKCQYCRFQKCAALGMSHNAIRF,-0.38 ± 0.059
16,NMECRVCGDKASGFHYGVHACEGCKGFFRRTIRMKLEYEKCERSCKIQKKNRNKCQYCRFQKCRALGMSHNAIRF,-0.391 ± 0.041
17,NMECRVCGDKASGFHYGVHACEGCKGFFRRTIRMKLEYEKCERSCKIQKKNRNKCQYCRFQKCQALGMSHNAIRF,-0.162 ± 0.056
18,NMECRVCGDKASGFHYGVHACEGCKGFFRRTIRMKLEYEKCERSCKIQKKNRNKCQYCRFQKCFALGMSHNAIRF,-0.828 ± 0.23
19,NMECRVCGDKASGFHYGVHACEGCKGFFRRTIRMKLEYEKCERSCKIQKKNRNKCQYCRFQKCVALGMSHNAIRF,-0.022 ± 0.038
20,NMECRVCGDKASGFHYGVHACEGCKGFFRRTIRMKLEYEKCERSCKIQKKNRNKCQYCRFQKCSALGMSHNAIRF,-0.648 ± 0.089
21,NMECRVCGDKASGFHYGVHACEGCKGFFRRTIRMKLEYEKCERSCKIQKKNRNKCQYCRFQKCWALGMSHNAIRF,-0.755 ± 0.1
22,NMECRVCGDKASGFHYGVHACEGCKGFFRRTIRMKLEYEKCERSCKIQKKNRNKCQYCRFQKCNALGMSHNAIRF,-0.906 ± 0.21
23,NMECRVCGDKASGFHYGVHACEGCKGFFRRTIRMKLEYEKCERSCKIQKKNRNKCQYCRFQKCCALGMSHNAIRF,-0.16 ± 0.073

# Reference: the Human Domainome abundance scans (Beltran et al. 2025)
